B1: HpFT-1HR: H. pylori α-1,3-fucosyltransferase variant: catalytically active domain, a heptapeptide repeat sequence and C-terminus fused His tag (protein)
chain: MFQPLLDAFIESASIEKMVSKSPPPPLKIAVANWWGDEEIKEFKKSVLYFILSQRYAITLHQNPNESSDLVFSNPLGAARKILSYQNTKRVFYTGENESPNFNLFDYAIGFDELDFNDRYLRMPLYYAHLHYEAELVNDTTAPYKLKDNSLYALKKPSHHFKENHPNLCAVVNDESDLLKRGFASFVASNANAPMRNAFYDALNSIEPVTGGGSVRNTLGYKVGNKSEFLSQYKFNLCFENSQGYGYVTEKILDAYFSHTIPIYWGSPSVAKDFNPKSFVNVHDFNNFDEAIDYIKYLHTHPNAYLDMLYENPLNTLDGKAYFYQDLSFKKILDFFKTILENDTIYHNNPFIFYRDLHEPLISIDDLRVNYLEHHHHHH
modifications: Catalytically active domain of Helicobacter pylori Alpha-(1,3)-fucosyltransferase (GenBank No.AAD07710.1) with 1 heptapeptide repeat and a C-terminal His tag
B2: HpFT-0HR: HpFT variant: catalytically active domain and C-terminus fused His tag, no heptapeptide repeat (protein)
chain: MFQPLLDAFIESASIEKMVSKSPPPPLKIAVANWWGDEEIKEFKKSVLYFILSQRYAITLHQNPNESSDLVFSNPLGAARKILSYQNTKRVFYTGENESPNFNLFDYAIGFDELDFNDRYLRMPLYYAHLHYEAELVNDTTAPYKLKDNSLYALKKPSHHFKENHPNLCAVVNDESDLLKRGFASFVASNANAPMRNAFYDALNSIEPVTGGGSVRNTLGYKVGNKSEFLSQYKFNLCFENSQGYGYVTEKILDAYFSHTIPIYWGSPSVAKDFNPKSFVNVHDFNNFDEAIDYIKYLHTHPNAYLDMLYENPLNTLDGKAYFYQDLSFKKILDFFKTILENDTIYHNNPFIFYRDLHEPLISILEHHHHHH
modifications: Catalytically active domain of Helicobacter pylori Alpha-(1,3)-fucosyltransferase (GenBank No.AAD07710.1) with a C-terminal His tag
B3: HpFT-6HR: HpFT variant: catalytically active domain, six heptapeptide repeat sequences and C-terminus fused His tag (protein)
chain: MFQPLLDAFIESASIEKMVSKSPPPPLKIAVANWWGDEEIKEFKKSVLYFILSQRYAITLHQNPNESSDLVFSNPLGAARKILSYQNTKRVFYTGENESPNFNLFDYAIGFDELDFNDRYLRMPLYYAHLHYEAELVNDTTAPYKLKDNSLYALKKPSHHFKENHPNLCAVVNDESDLLKRGFASFVASNANAPMRNAFYDALNSIEPVTGGGSVRNTLGYKVGNKSEFLSQYKFNLCFENSQGYGYVTEKILDAYFSHTIPIYWGSPSVAKDFNPKSFVNVHDFNNFDEAIDYIKYLHTHPNAYLDMLYENPLNTLDGKAYFYQDLSFKKILDFFKTILENDTIYHNNPFIFYRDLHEPLISIDDLRVNYDDLRVNYDDLRVNYDDLRVNYDDLRVNYDDLRVNYLEHHHHHH
modifications: Catalytically active domain of Helicobacter pylori Alpha-(1,3)-fucosyltransferase (GenBank No.AAD07710.1) with 6 heptapeptide repeats and a C-terminal His tag
B4: HpFT-3HR: H. pylori α-1,3-fucosyltransferase variant: catalytically active domain, three heptapeptide repeat sequences and C-terminus fused His tag (protein)
chain: MFQPLLDAFIESASIEKMVSKSPPPPLKIAVANWWGDEEIKEFKKSVLYFILSQRYAITLHQNPNESSDLVFSNPLGAARKILSYQNTKRVFYTGENESPNFNLFDYAIGFDELDFNDRYLRMPLYYAHLHYEAELVNDTTAPYKLKDNSLYALKKPSHHFKENHPNLCAVVNDESDLLKRGFASFVASNANAPMRNAFYDALNSIEPVTGGGSVRNTLGYKVGNKSEFLSQYKFNLCFENSQGYGYVTEKILDAYFSHTIPIYWGSPSVAKDFNPKSFVNVHDFNNFDEAIDYIKYLHTHPNAYLDMLYENPLNTLDGKAYFYQDLSFKKILDFFKTILENDTIYHNNPFIFYRDLHEPLISIDDLRVNYDDLRVNYDDLRVNYLEHHHHHH
modifications: Catalytically active domain of Helicobacter pylori Alpha-(1,3)-fucosyltransferase (GenBank No.AAD07710.1) with 3 heptapeptide repeats and a C-terminal His tag

Columns and labels:
Assay type in all cases: biochemical
[1] = system: Trastuzumab-(GalNAzβ1,4)GlcNAc; experiment: Transfer of GDP-FAmP4Biotin to Trastuzumab-(GalNAzβ1,4)GlcNAc by different HpFTs; settings: donor GDP-FAmP4Biotin 1 mM, enzyme 0.5 mg/mL, 30° C., 3 h; FIG. 4
Trastuzumab-G2F = experiment: Transfer of GDP-FAmP4Biotin to Trastuzumab-G2F by different HpFTs (% of conversion by MS); settings: donor GDP-FAmP4Biotin 1 mM, enzyme 0.5 mg/mL, 30° C., 3 h; FIG. 1
Procedure: (§1) To 40 mM Tris-HCl (pH 7.5) buffer were added Trastuzumab-G2F (2 mg/mL final), GDP-FAmP4Biotin (1 mM final), MgCl2 (20 mM final), and different HpFT enzymes (HpFT-4HR, HpFT-4HR(M4), HpFT-4HR(M7), HpFT-6HR, HpFT-3HR, HpFT-2HR, HpFT-1HR, or HpFT-0HR) (0.5 mg/mL final) in sequence, and the resulting mixed solution was allowed to react at 30° C. for 3 h. Three parallels were set up for each group. After the reaction time point was reached, to the reaction solution was added 10 mM LacNAc (N-acetyl-D-lactosamine), and the reaction was terminated by a desalting column (Zeba™ Spin Desalting Columns/2 ml/40K, Thermo Fisher Scientific), and finally mass spectrometry was carried out and % of conversion was calculated. % of conversion=(MAR0 peak intensity*0+MAR1peak intensity*1+MAR2 peak intensity*2+MAR3 peak intensity*3+MAR4 peak intensity*4)/4* (MAR0 peak intensity+MAR1 peak intensity+MAR2 peak intensity+MAR3 peak intensity+MAR4 peak intensity)*100%.

[2] = system: Trastuzumab-(Fucα1,6)(Galβ1,4)GlcNAc; experiment: Transfer of GDP-FAmP4Biotin to Trastuzumab-(Fucα1,6)(Galβ1,4)GlcNAc by different HpFTs; settings: donor GDP-FAmP4Biotin 1 mM, enzyme 0.5 mg/mL, 30° C., 1 h; FIG. 2
Procedure: as §1, with “added Trastuzumab-(Fucα1,6)(Galβ1,4)GlcNAc” for “added Trastuzumab-G2F”, “HpFT-2HR, HpFT-1HR” for “HpFT-2HR, HpFT-1HR,”, “for 1” for “for 3”, “mM LacNA,” for “mM LacNAc (N-acetyl-D-lactosamine),”, “peak intensity*2)/2*” for “peak intensity*2+MAR3 peak intensity*3+MAR4 peak intensity*4)/4*”, “peak” for “peak intensity+MAR3 peak intensity+MAR4 peak”

[3] = system: Trastuzumab-(Fucα1,6)(GalNAzβ1,4)GlcNAc; experiment: Transfer of GDP-FAmP4Biotin to Trastuzumab-(Fucα1,6)(GalNAzβ1,4)GlcNAc by different HpFTs; settings: donor GDP-FAmP4Biotin 1 mM, enzyme 0.5 mg/mL, 30° C., 3 h; FIG. 3

| Molecule | catalytic activity among the HpFT variants [1] | catalytic activity as compared with HpFT-4HR (% of conversion) [1] | catalytic activity as compared with HpFT-4HR (% of conversion) (Trastuzumab-G2F) | catalytic activity as compared with HpFT-4HR (% of conversion) [2] | catalytic activity among the HpFT variants [3] | catalytic activity as compared with HpFT-4HR (% of conversion) [3] |
| --- | --- | --- | --- | --- | --- | --- |
| B1 | relatively high catalytic activity | significantly improved catalytic activity | significantly improved catalytic activity | significantly improved catalytic activity | relatively high catalytic activity | significantly improved catalytic activity |
| B2 |  | significantly decreased activity |  | significantly decreased activity |  | significantly decreased activity |
| B3 |  | little activity change |  | no obvious activity change |  | little activity change |
| B4 |  | significantly improved catalytic activity | significantly improved catalytic activity | significantly improved catalytic activity |  | significantly improved catalytic activity |

— patent publication US20240335558A1, “ISOLATED POLYPEPTIDE AND USE THEREOF” (GLYCO-THERAPY BIOTECHNOLOGY CO., LTD., priority 2021, published 2024)
